Data on one protein can be found in publication PMC3240985.

Substrate in this data set: O=C(O)[C@@H](COP(=O)(O)O)O[C@H]1O[C@H](CO)[C@@H](O)[C@H](O)[C@H]1O
In words: purified protein. To be noted: pH 7.5; 37.0 °C.

B1: mGpgP (Rv2419c), recombinant GpgP from M. tuberculosis (Mycobacterium tuberculosis H37Rv) (protein)
chain: MRARRLVMLRHGQTDYNVGSRMQGQLDTELSELGRTQAVAAAEVLGKRQPLLIVSSDLRRAYDTAVKLGERTGLVVRVDTRLRETHLGDWQGLTHAQIDADAPGARLAWREDATWAPHGGESRVDVAARSRPLVAELVASEPEWGGADEPDRPVVLVAHGGLIAALSAALLKLPVANWPALGGMGNASWTQLSGHWAPGSDFESIRWRLDVWNASAQVSSDVL
As to B1, the Km was determined as 350 ± 30 µM.

In general, Km refers to the concentration of substrate that gives half-maximal velocity.
